PMC7810697, “Sarcolipin alters SERCA1a interdomain communication by impairing binding of both calcium and ATP” (Scientific Reports, 2021)
Ends that are not written are not given here. * marks the point of attachment. Palmitoyl = CCCCCCCCCCCCCCCC(=O)*

Experiments:
[1] = molecular target: T1, recombinant SERCA1a (recS1a) (Oryctolagus cuniculus, UniProt P04191); assay: Turnover-dependent dephosphorylation kinetics; assay type: biochemical, rabbit (expressed in S. cerevisiae); settings: for effect on rate of dephosphorylation: after addition of non-radioactive ATP
T1 construct: BAD (biotin acceptor domain) (C, cleaved yes); made in house; host or cells: Saccharomyces cerevisiae
Protocol: (§1) Transient formation of the phosphoenzyme intermediate was measured after incubation with [γ^32P]ATP followed by acid quenching, and filtration. For most experiments, 50 µL of enzyme at 10 µg/mL in a buffer containing 50 mM Tes-Tris pH7.5, 1 mM KCl, 5 mM MgCl2, 20% glycerol (w/w) and 0.5 mg/mL DDM, supplemented or not with SLN, was stored on ice. Concentrations of EGTA and calcium are specified in figure legends in order to reach the appropriate [Ca^2+]free and therefore the desired starting state for the ATPase. For kinetics of phosphorylation, we initiate reaction by addition of 2 µM [γ^32P]ATP (5 mCi/µmole), and calcium at 100 µM when specified. Reaction was quenched by addition of 2 mL of cold quenching medium (500 mM TCA + 30 mM H3P0_4) under vigorous mixing, and immediately stored on ice for 20–30 min to improve precipitation, a period of time critical for retention of the precipitate on the filter in presence of detergent. This was followed by filtration on GS filters (Millipore, Saint Quentin-Fallavier, France) and careful rinsing of the filters with diluted quenching medium (50 mM TCA + 3 mM H3P0_4). The amount of radioactivity bound to the filter was estimated by liquid scintillation counting (Perkin Elmer TriCarb Counter). When starting from a calcium-deprived state (Fig. 4C,D), EGTA was added only one minute before starting phosphorylation to limit irreversible inactivation of the solubilized ATPase, although the presence of glycerol helps in protecting the enzyme from irreversible inactivation. For dephosphorylation kinetics, 1 mM “cold” Mg.ATP was added after a 30 s period of phosphorylation. For Ca^2+-dependency, we adjust the concentration of free calcium according to the Ca.EGTA constant as mentioned above, before triggering phosphorylation. […] Phosphorylations were done at 0 °C especially for inhibition by vanadate to prevent dissociation of vanadate and limit irreversible inactivation in absence of calcium.

[2] = molecular target: T2, DDM-solubilized SR (native SERCA1a) (Oryctolagus cuniculus, UniProt P04191); assay: Effect of SLN:SERCA1a stoichiometry on phosphorylated intermediate, DDM-solubilized SR; assay type: biochemical, rabbit; settings: for EPmax (stoichiometry series), DDM-solubilized SR / decrease of the EP level, DDM-solubilized native SERCA1a (discussion): Fig. 4G; for amplitude of the inhibition of phosphoenzyme level, DDM-solubilized SR: SR without added SLN = 100%; for amplitude of the inhibition of phosphoenzyme level, DDM-solubilized SR / SLN:SERCA1a ratio for half-inhibition, DDM-solubilized SR (Fig. 4H): mean of three independent experiments; for SLN:SERCA1a ratio for half-inhibition, DDM-solubilized SR (Fig. 4H): phosphoenzyme after 20 s, p = 0.047 pSLN vs SLN
T2 construct: DDM-solubilized native SERCA1a purification; from tissue; host or cells: rabbit skeletal muscle sarcoplasmic reticulum
Protocol: Transient formation of the phosphoenzyme intermediate was measured after incubation with [γ^32P]ATP followed by acid quenching, and filtration. For most experiments, 50 µL of enzyme at 10 µg/mL in a buffer containing 50 mM Tes-Tris pH7.5, 1 mM KCl, 5 mM MgCl2, 20% glycerol (w/w) and 0.5 mg/mL DDM, supplemented or not with SLN, was stored on ice. Concentrations of EGTA and calcium are specified in figure legends in order to reach the appropriate [Ca^2+]free and therefore the desired starting state for the ATPase. For kinetics of phosphorylation, we initiate reaction by addition of 2 µM [γ^32P]ATP (5 mCi/µmole), and calcium at 100 µM when specified. Reaction was quenched by addition of 2 mL of cold quenching medium (500 mM TCA + 30 mM H3P0_4) under vigorous mixing, and immediately stored on ice for 20–30 min to improve precipitation, a period of time critical for retention of the precipitate on the filter in presence of detergent. This was followed by filtration on GS filters (Millipore, Saint Quentin-Fallavier, France) and careful rinsing of the filters with diluted quenching medium (50 mM TCA + 3 mM H3P0_4). The amount of radioactivity bound to the filter was estimated by liquid scintillation counting (Perkin Elmer TriCarb Counter). When starting from a calcium-deprived state (Fig. 4C,D), EGTA was added only one minute before starting phosphorylation to limit irreversible inactivation of the solubilized ATPase, although the presence of glycerol helps in protecting the enzyme from irreversible inactivation. For dephosphorylation kinetics, 1 mM “cold” Mg.ATP was added after a 30 s period of phosphorylation. For Ca^2+-dependency, we adjust the concentration of free calcium according to the Ca.EGTA constant as mentioned above, before triggering phosphorylation. […] Phosphorylations were done at 0 °C especially for inhibition by vanadate to prevent dissociation of vanadate and limit irreversible inactivation in absence of calcium. […]
resuspended in a large volume of pure water and lyophilized to evaporate most of the TFA. The rinsed powder was then suspended in presence of 10 mM HCl to exchange the anionic residual TFA that may interact with the positive charges of the peptide for chloride. This suspension was lyophilized again.
Three additional cycles of – dissolving in pure water / lyophilisation – will allow to eliminate traces of TFA and to get back to a pH compatible with functional tests. For final solubilisation of SLN in detergent, powder was then dissolved in 50% TFE and an amount of detergent to reach a 100:1 mole:mole detergent:SLN ratio. Here, we used C12E8 as it is fully compatible with functional characterization of SERCA1a 23. This suspension was then lyophilized again to evaporate TFE.
Sarcolipins (Palm-SLN or SLN) were finally resuspended at 0.8 mg/mL (about 200 µM) in a 10 mM potassium phosphate buffer pH 7.4, in the presence of 2.5 mg/mL C12E8. […]
DDM-solubilized native SERCA1a purification
SR vesicles were suspended at a concentration of 1 mg/mL in a buffer containing 50 mM MOPS-Tris pH7, 100 mM KCl, 5 mM MgCl2, 0.1 mM CaCl2, 20 % glycerol (v/v) and 10 mg/mL DDM (detergent:protein ratio 10:1 w/w), and incubated for 10 minutes at 20°C. Solubilized material was recovered after centrifugation for 10 minutes at 120,000 x g on a TLA100.3 rotor (Beckman Coulter TL100 ultracentrifuge). Supernatant was injected on a size exclusion chromatography column (Superdex 200 10/300 GL on an Akta Purifier FPLC system, GE Healthcare) equilibrated with the same buffer but now containing only 0.5 mg/mL DDM. Chromatography was performed at 4°C and at a flow rate of 0.5 mL/min. Fractions corresponding to the main peak were collected, pooled and stored at - 80°C. For further details, see 32.
Steady-state ATPase activity measurements
Measurements were performed using classical enzyme coupled assay. We measured the rate of NADH oxidation in the presence of 0.1 mg/mL lactate deshydrogenase, 0.05 mg/mL pyruvate kinase, 1 mM […]

[3] = molecular target: T1, recombinant SERCA1a (recS1a); assay: Effect of SLN:SERCA1a stoichiometry on phosphorylated intermediate, recS1a; assay type: biochemical, rabbit (expressed in S. cerevisiae); settings: for EPmax (stoichiometry series), recS1a / maximum decrease of the EP level, recS1a (discussion): Fig. 4G; for SLN:SERCA1a ratio for half-inhibition, recS1a (Fig. 4H): phosphoenzyme after 20 s, dose-response with variable slope; for SLN:SERCA1a ratio for half-inhibition, recS1a (Fig. 4H) / amplitude of the inhibition of phosphoenzyme level, recS1a: mean of three independent experiments; for amplitude of the inhibition of phosphoenzyme level, recS1a: recS1a without SLN = 100%
Protocol: as §1

T2 sequence (P04191 1-994 isoform P04191-2): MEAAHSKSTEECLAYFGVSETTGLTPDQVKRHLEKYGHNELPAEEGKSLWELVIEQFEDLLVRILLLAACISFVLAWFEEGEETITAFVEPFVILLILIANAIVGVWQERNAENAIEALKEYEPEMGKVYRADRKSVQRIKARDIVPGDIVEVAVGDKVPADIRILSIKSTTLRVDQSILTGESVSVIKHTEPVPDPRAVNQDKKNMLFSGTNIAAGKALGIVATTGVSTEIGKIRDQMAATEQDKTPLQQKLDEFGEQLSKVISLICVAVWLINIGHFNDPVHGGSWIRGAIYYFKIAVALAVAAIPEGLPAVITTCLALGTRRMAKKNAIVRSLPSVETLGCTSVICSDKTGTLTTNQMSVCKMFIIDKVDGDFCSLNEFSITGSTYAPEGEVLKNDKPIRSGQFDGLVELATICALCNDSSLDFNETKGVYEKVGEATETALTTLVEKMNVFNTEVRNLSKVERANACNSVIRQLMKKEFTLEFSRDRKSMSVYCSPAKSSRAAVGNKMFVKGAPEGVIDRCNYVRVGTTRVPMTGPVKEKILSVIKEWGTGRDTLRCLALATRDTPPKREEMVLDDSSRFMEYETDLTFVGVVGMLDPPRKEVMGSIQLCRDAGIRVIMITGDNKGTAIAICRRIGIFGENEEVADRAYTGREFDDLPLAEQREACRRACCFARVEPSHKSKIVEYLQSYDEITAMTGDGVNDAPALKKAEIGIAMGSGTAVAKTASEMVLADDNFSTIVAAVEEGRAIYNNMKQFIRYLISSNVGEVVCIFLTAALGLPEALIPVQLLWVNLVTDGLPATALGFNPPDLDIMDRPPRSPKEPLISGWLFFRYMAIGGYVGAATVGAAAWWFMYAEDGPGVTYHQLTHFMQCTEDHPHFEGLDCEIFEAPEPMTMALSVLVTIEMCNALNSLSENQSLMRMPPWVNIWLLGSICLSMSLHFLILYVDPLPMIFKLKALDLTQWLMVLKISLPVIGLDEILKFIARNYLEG
T1 sequence (P04191 1-994 isoform P04191-2): as above

| Substance | effect on rate of dephosphorylation [1] | EPmax (stoichiometry series), DDM-solubilized SR [2] | decrease of the EP level, DDM-solubilized native SERCA1a (discussion) [2] | amplitude of the inhibition of phosphoenzyme level, DDM-solubilized SR [2] | SLN:SERCA1a ratio for half-inhibition, DDM-solubilized SR (Fig. 4H) [2] | EPmax (stoichiometry series), recS1a [3] | maximum decrease of the EP level, recS1a (discussion) [3] | SLN:SERCA1a ratio for half-inhibition, recS1a (Fig. 4H) [3] | amplitude of the inhibition of phosphoenzyme level, recS1a [3] | t1/2 of dephosphorylation ([1]; pSLN:SERCA1a 10:1 mol:mol, 1 mM cold Mg.ATP after 30 s phosphorylation, three replicates from two independent experiments, recS1a alone 2.4 +/- 0.4, p=0.064) |
| --- | --- | --- | --- | --- | --- | --- | --- | --- | --- | --- |
| SLN: chemically synthesized non-palmitoylated rabbit sarcolipin; in cited literature results sarcolipin in general (MERSTRELCLNFTVVLITVILIWLLVRSYQY; UniProt P42532 1-31, looked up) | No effect | 3.94 ± 0.12 nmoles EP/mg ATPase | about 20% | 19.0 ± 0.7% | 3.1 ± 0.3 mol SLN added per mole of SERCA1a | 2.38 ± 0.05 nmoles EP/mg ATPase | about 30% | 4.7 ± 0.2 mol SLN added per mole of SERCA1a | 28.6 ± 0.5% |  |
| pSLN: chemically synthesized S-palmitoylated rabbit sarcolipin, 31-residue single-spanning membrane peptide, palmitoylated on Cys9 (MERSTRELC(Palmitoyl)LNFTVVLITVILIWLLVRSYQY; UniProt P42532 1-31, looked up) | No effect | 4.00 ± 0.14 nmoles EP/mg ATPase | about 30% | 28.1 ± 1.2% | 5.9 ± 0.6 mol SLN added per mole of SERCA1a | 2.37 ± 0.05 nmoles EP/mg ATPase | about 30% | 5.1 ± 0.3 mol SLN added per mole of SERCA1a | 31.2 ± 0.8% | 2.8 ± 0.6 s |
